This note sets out measurements from patent US20140220589.

In this data set the target is T1, H11 peptide FLVMFLSG (SEQ. ID. NO.: 1) (not fully specified).
T1 chain: FLVMFLSG

B1: streptococcal pyogenix exotoxin B (SpeB) (protein)
chain: QPVVKSLLDSKGIHYNQGNPYNLLTPVIEKVKPGEQSFVGQHAATGCVATATAQIMKYHNYPNKGLKDYTYTLSSNNPYFNHPKNLFAAISTRQYNWNNILPTYSGRESNVQKMAISELMADVGISVDMDYGPSSGSAGSSRVQRALKENFGYNQSVHQINRGDFSKQDWEAQIDKELSQNQPVYYQGVGKVGGHAFVIDGADGRNFYHVNWGWGGVSDGFFRLDALNPSALGTGGGAGGFNGYQSAVVGIKP
As to B1, the “proteolytic activity in a microplate assay (rate of color development, mOD/min); lower limit of detection” value is listed as “The lower limit of detection was 100 pg of purified SpeB”.
